The values that follow come from US20080014635A1.

The target of assay [1] is wild-type TNFrED-agglutinin fusion displayed on the surface of S. cerevisiae BJ2168 (human). The experiment in a line: saturation binding of [125I]TNF-α to yeast displaying wild-type TNFrED, best-fit values box; axis 'Bound' has no unit [A].
Assay [2] deals with mutant clone 11 (TNFrED S76P)-agglutinin fusion displayed on yeast (human). Nature of the assay: saturation binding of [125I]TNF-α to yeast displaying mutant clone 11, best-fit values box; axis 'Bound' has no unit [C].
Sequence of mutant clone 11 (TNFrED S76P)-agglutinin fusion displayed on yeast (human) (P20840 other isoform, or with tags, fused parts or gaps S76P S76P, form in doubt): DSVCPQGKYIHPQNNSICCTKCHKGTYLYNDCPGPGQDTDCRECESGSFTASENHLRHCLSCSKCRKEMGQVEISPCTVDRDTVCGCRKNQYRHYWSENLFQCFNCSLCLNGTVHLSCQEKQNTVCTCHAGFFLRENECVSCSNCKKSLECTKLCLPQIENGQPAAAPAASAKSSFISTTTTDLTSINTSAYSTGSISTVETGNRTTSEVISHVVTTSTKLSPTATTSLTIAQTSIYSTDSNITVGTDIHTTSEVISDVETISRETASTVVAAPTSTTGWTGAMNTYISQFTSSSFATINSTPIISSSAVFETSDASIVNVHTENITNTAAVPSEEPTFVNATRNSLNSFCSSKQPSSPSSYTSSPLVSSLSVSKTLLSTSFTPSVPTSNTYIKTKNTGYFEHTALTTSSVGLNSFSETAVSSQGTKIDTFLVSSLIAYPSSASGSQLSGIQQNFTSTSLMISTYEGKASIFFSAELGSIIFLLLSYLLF
Assay [3] has as its target wild-type TNFrED-agglutinin fusion displayed on the surface of S. cerevisiae BJ2168 (human). Nature of the assay: flow cytometry of yeast, biotinylated hTNF-α detected with FITC-avidin (FL1-H); vector-only pYES2 yeast in the left panel: Left Half= 98.58% [B]. For orientation: A flow cytometer gives signals particle by particle.
The target is the same in assay [4]. The experiment in a line: saturation binding of [125I]TNF-α to yeast displaying wild-type TNFrED, best-fit values box; the box prints no unit, the concentration axis is TNF-α [nM] [A].
Assay [5] shares this target. The experiment in a line: flow cytometry of yeast, biotinylated hTNF-α detected with FITC-avidin (FL1-H); gate line at FL1-H just below 10^1; vector-only pYES2 yeast in the left panel: Right Half= 1.42% [B].
Assay [6] addresses mutant clone 6 (TNFrED H23P + S46I)-agglutinin fusion displayed on yeast (human). Nature of the assay: saturation binding of [125I]TNF-α to yeast displaying mutant clone 6, best-fit values box; the box prints no unit, the concentration axis is TNF-α [nM] [B].
Assay [7] shares this target. Nature of the assay: saturation binding of [125I]TNF-α to yeast displaying mutant clone 6, best-fit values box; axis 'Bound' has no unit [B].

Sequence of wild-type TNFrED-agglutinin fusion displayed on the surface of S. cerevisiae BJ2168 (human) (P20840 other isoform, or with tags, fused parts or gaps, form in doubt): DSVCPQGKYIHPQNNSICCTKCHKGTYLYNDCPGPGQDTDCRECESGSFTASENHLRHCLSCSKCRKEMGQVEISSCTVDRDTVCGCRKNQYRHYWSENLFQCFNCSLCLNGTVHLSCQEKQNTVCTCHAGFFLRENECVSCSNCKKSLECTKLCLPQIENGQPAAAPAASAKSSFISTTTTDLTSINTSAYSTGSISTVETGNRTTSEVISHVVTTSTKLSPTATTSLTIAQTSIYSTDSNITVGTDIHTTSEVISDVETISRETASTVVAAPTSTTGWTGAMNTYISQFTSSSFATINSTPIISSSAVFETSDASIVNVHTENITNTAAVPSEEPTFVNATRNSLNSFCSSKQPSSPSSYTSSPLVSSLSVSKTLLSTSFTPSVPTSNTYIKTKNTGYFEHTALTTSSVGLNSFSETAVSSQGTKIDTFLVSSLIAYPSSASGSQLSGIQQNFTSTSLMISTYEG
Sequence of mutant clone 6 (TNFrED H23P + S46I)-agglutinin fusion displayed on yeast (human) (P20840 other isoform, or with tags, fused parts or gaps H23P S46I H23P S46I, form in doubt): as the sequence (P20840 other isoform, or with tags, fused parts or gaps S76P S76P, form in doubt) above, with H23P, S46I, P76S counted along it

For orientation: Kd means a measure of binding affinity in units of concentration. “human TNF-α (hTNF-α) (from UniProt P01375 77-233) (ligand)”: the BMAX in assay [1] came out at 0.0645; in assay [2], 0.127; in assay [7], 0.334. In assay [3], this substance gave a Left Half (percent of yeast cells left of the FL1-H gate) of 89.1%. The dissociation constant (Kd) in assay [4] is 2.04 nM; in assay [6] it was 1.71 nM. The Right Half (percent of yeast cells right of the FL1-H gate) in assay [5] is 10.9%.
